Kd data for 1 molecule are collected here from paper PMC3226482 (Molecular Biology of the Cell, 2011).

The Kd is the concentration at which binding is half-saturated.

This assay addresses T1, karyopherin β2 (human, UniProt Q92973 1-898).
T1 sequence: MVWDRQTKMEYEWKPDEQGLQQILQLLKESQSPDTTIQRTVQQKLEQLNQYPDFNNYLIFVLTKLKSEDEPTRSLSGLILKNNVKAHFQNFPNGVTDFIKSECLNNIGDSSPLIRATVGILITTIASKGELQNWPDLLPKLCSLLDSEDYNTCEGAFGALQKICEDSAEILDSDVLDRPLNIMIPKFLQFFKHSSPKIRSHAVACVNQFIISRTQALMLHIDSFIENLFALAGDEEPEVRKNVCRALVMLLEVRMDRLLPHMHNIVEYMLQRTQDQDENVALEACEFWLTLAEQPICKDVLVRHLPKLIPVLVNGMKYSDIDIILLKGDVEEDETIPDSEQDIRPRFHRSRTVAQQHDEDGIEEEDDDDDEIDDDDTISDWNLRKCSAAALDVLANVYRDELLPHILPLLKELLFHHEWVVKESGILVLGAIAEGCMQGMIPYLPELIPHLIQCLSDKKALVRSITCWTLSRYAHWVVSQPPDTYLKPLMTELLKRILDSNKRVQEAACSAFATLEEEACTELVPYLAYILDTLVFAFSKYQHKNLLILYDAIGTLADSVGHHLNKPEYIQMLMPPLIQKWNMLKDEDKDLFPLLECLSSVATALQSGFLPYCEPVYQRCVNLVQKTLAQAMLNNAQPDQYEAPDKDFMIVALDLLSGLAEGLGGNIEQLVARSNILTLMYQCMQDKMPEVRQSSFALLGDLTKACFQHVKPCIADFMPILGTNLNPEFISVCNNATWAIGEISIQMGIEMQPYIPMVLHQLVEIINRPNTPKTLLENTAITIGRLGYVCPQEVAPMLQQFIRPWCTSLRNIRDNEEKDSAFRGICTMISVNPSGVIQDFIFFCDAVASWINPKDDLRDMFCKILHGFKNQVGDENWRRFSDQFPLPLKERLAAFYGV
The assay can be described thus: ITC. (In general: In ITC the heat of successive injections is recorded.)

B1: hsNXF1 fragment, residues 1-92 (domain or fragment)
chain: MADEGKSYSEHDDERVNFPQRKKKGRGPFRWKYGEGNRRSGRGGSGIRSSRLEEDDGDVAMSDAQDGPRVRYNPYTTRPNRRGDTWHDRDRI
Take B1: the equilibrium dissociation constant (Kd) came to 54 nM.
